Reference: a protein production outcome set (Wang et al. 2014)

Assay: label from the status in PepcDB records

| Sequence | protein production |
| --- | --- |
| MFELLFLLLPIAALYGWYIGRLSVKKEQESINNKFSRDYVTGLNFLLSNQQEKAVDLFLSMLQKQESENQIATESQFEAELTLGNLFRSRGEVDRALRIHQALDSSLNYSIEQKLLAKQQLAKDFMAAGFYDRAENYYILLLDEPEFAVNSLTQLMVLYQKTNEWKKAINVAEKLLKIDPKTDRIPLSHYYCEYAQAIKSEDEDLYLRLLGKALEYSPLCTRASMLLGDYYLAQGQFSQALTHFEHILVQDPDYISEVLHNIKTCHAALHDFINYELFLIRSNQVKHNSSVDIALAELIEQKDGLIAAHSKLYQQLSKYPSMLIFHRFIYYQINEAEEGSAKESLVLLHNMVGARIKKSFQYRCLNCGYQSYRLSWYCPSCRQWEQIKPINGIDSY | failed |
| MNANQFLKAVSQLQGWRECAFLLALAERSFPNYALFADAVGLKTGGKMRQLLDLAWDMLQKDVADAAIPQLLSKLETLCPNVDEYDAYGVYPAFDFCQLLEQALLNRLNPNKHRATEASQLATRTVMDFVEMSEGEGMDENELVRVFEHHPLLKDDKLFQRDTVMALYYYRTPKEAFLAELRAGAANDGVSNLGISLEG | not failed |
| GQRVLFGSGEAAQNLAAEISRLDAKNVMVVAGDFELPMARQVAADIDVKVWHSNVVMHVPIETAEEARSVAKENDIDVVVCVGGGSTTGLAKAIAMTTALPIIAVPTTYAGSEATNVWGLTEAARKTTGVDNKVLPVTVIYDSALTMSLP | not failed |
| MKDNYDAPESMLTGRVMYNGEALQLRGNEAVQLQLYQHGYAKHDPINVYVNQDGMYSANLFDGEYQMITKSGNGPWTSEGRDTINVTVAGNTVQDVEVTPYYLVRDAQMTLEGNKVNASFKVEKVAGGGIDRVFFMLSTTQFVNDAEHNVDRYDETDNLDAYDETGKLYTFATRDYTDNSMFQTALKRGTLFGRICIWPKGSDQGIYSKVIRLK | not failed |
| VAITDNRGVITHVNEKFCDISQYEYYELVGTTHKIINSGFHPRSFFKQMWKTIAQGNIWKGEICNRTKQGKLYWVDTTIVPLKDNDGLLKNYISIRTDITQ | failed |
| MFQLRKKMTRKQLALLSAGVLTCVVGGSYLIMNHQQQEIVSSVNKVKALTIKEAMEQGKDISLTLAGEVTANNSSKVKIDSSKGEVKEVFVKKGDVVKVGQPLFSYETSQRLTAQSSEFDVQTKANQLQVAKTNAALKWETYNRKVNEINTLKSRYNTAPDESLLEQIRSAEDSVSQALSDAKTADSDVKTAQIELDKANATATTEKGKLEYDTVKSDTAGTIVSLNTDLPNQSKSKKENETFMEIIDKSKMLVKGNISEFDRDKLKIGQKVEVIDRKDNSKKWTGKVTQVGNLKAEEKGQGQGQGGNDQQDNPNQAKFPYVIELDQSDKQPLIGSHTYVNVLNNVPEAGKIVLKETFTMAENGKTYVWKVDKNKVKKQEIKTKPFSKGYVEVTSGLTMQDKIAQPLPGMKDGMEVGSIVKP | failed |
| MNNTQQFSLSMRLFHWAMAALVISMLAAGLLMVRSLEPWQLSILTVHKAFGVVAAALVIARLMNRLFHQIPALPGDLSSLQTFVAKASHWLLYLLLFAMPISGYLMQYFAGRPIDVFGWFRLPSALTVNIENYAIFRELHGWLAIALMALVALHVAAALHHHFIRKDTVLKSML | failed |
| MGHHHHHHSHMQDRRSVCIFLPNDESLNIIINVKILCHQLLVQVCDLLRLKDCHLFGLSVIQNNEHVYME | not failed |
| MSADGSEYGRYFEQLQKVNLTVRLGDTGSFDGTAAITSLKGSLAWLELFGAEQPPPNTLSEGAEVSVSVWTGGALCRCDGRVETLRDDRQFAIRLVGRVRELQRREYF | not failed |
| TSKQRYSGKVHLCVARYSYNPFDGPNENPEAELPLTAGKYLYVYGDMDEDGFYEGELLDGQRGLVPSNFVDFVQDNESRLAST | not failed |
| MWGRLLLWPLVLGFSLSGGTQTPSVYDESGSTGGGDDSTPSILPAPRGYPGQVCANDSDTLELPDSSRALLLGWVPTRLVPALYGLVLVVGLPANGLALWVLATQAPRLPSTMLLMNLATADLLLALALPPRIAYHLRGQRWPFGEAACRLATAALYGHMYGSVLLLAAVSLDRYLALVHPLRARALRGRRLALGLCMAAWLMAAALALPLTLQRQTFRLARSDRVLCHDALPLDAQASHWQPAFTCLALLGCFLPLLAMLLCYGATLHTLAASGRRYGHALRLTAVVLASAVAFFVPSNLLLLLHYSDPSPSAWGNLYGAYVPSLALSTLNSCVDPFIYYYVSAEFRDKVRAGLFQRSPGDTVASKASAEGGSRGMGTHSSLLQ | failed |
| MEFTAEQLSQYNGTDESKPIYVAIKGRVFDVTTGKSFYGSGGDYSMFAGKDASRALGKMSKNEEDVSPSLEGLTEKEINTLNDWETKFEAKYPVVGRVVS | not failed |
| CSGKEALDYFKEDPQMFDMYHTGYQQQMSNWPELPVNSIINWLLSNSSSLVVADFGCGDARIAKSVKNKVFSFDLVSKNPSVIACDMSNTSLESSSVDVAVFCLSLMGTNYSSYIKEAHRVLRPSGMLLIAEVKSRFDPNNGGADPKDFVKAVCDLGFTSVLKDFSNKMFILFHFKKK | failed |
| MGVVLIDGSTVRSFVDDEEQFKKSVDERFAALDLNKDGVLSRSELRKAFESMRLLESHFGVDVVTPQDELTNLYDSIFEKFDTDQSGSVDLEEFRSEMKKIVLAIADGLGSCPITMVLDDDDDNFLKKAADLEASKLEKASS | failed |
| MEKNFILSVGMSVMFLFISSIKTVQAQQLGIGVKTELNGKVRFCNYDEAYFMPDTNTRIKVTGLEIAYDSSLNYYDIFVNVKGDKVNLHIKYSNGGEGAYIYKGIDRISKMDVVVTTKKKLSLYANNYGVNSYKEVESSVGIIIVFPKTYMISSIVPIKNKVETVNELSTQLRKGVITDSDGYTNIRKSNSVNSEIIGKIVDREVFTYWETNDNWYIVQTAKGIKGYVHKSRIKPVEERNEQKIRYYKVKNGDKIQDIAEKLGVSIDTICKLNRVKITTVLREGQALRISR | failed |
| MPNGPTCAARRARARSALVGGEGFRMEWSGKRVSDGSATRPTVAAWVSGGFGSGESVAAFKALATEAEAGDASAQRRLGLCFRDGLGTDRDIHRAKAWYQRSAAQNDPMAALELGLMLESGLGISSDHGEAGKWYRVALDLWRDRAEGGDALGQFVLGLCHEVGAGVPAAHREALKWYGRSAERGCAHAQWALGRLHEDGLGVVRDYSEAVRCYRAAAFQGHARACFNLGLMAELGLGMVRDADCSASWYGKALEVWRRWAELGDPAAATALAAMYEAGHGVAKDYAVAVCWYRRAARQGNPLAQFELGRLSMEGRGVERNDVEAVGWFRLAAERGHADAQFHLGLMHEHGRGVTRRFEEAFRWYDKAADEGPARRWDAFHRLVPAAGEVPEGCGLGAW | failed |
| MPQTSSLLGIDALYQFTGAGAQLFSGALFYTVIVRFFSASQVGAVALFIAIIGLFNLIFSFGLGTAVQHFASYHLGRQEYATAKSIVFKILILGIIFSSIGLITMFYLAKPISITFMHTAQYTPIVKLLSIVLVGDVLFGLLNGSALGLQLFRASGLMNIIIWITYYSTALVLAFLLKSLYYVVVGWSVGIFLGVILYLYLIIKSTKNYKGRPRHLTPSLLFQFSIPVLLSSIISYGATYIDRFIVAGLMTLSALGVYNFALLVASSIGFIVAPLNNIMLPKFSEFYGEGNRENIKNRTAIATTVVAGVYVPAALGVAVLSKMIITLLAGKYYEEGSDAISIIMVFSALFVTSNVMTQLIAAVRETRVFIYSSAASLASNAILSIILIPHFGIEGASIGFSSIYAASFFVLYKYAKKTGFYQANVYDLAKVWGSSLVMVFVVLAFEVRFGTSIDLLVPYILLGAVVYLGMIKSTRLIHRNEALFLSSLFPQSMPFITKLIRLISSE | failed |
| MDTTFGLDLARVETLFKRELRRFDELHPRSAQAYRENRRHWLYGAPLHWMQQWPGNCPLLVKEAQGARVTDIDGQQYVDFALGDSGAMFGHAQPAVADAIARQARRGSTLMLPTEDSLWVGAELARRFGLPYWQVTTSATDANRFVLRLCRMLSGRDKVVVFNCNYHGSVDESQVEFDAAGRMVPRAGVHPNGVRHATTTRLVEFNDLDALEAALAHGDVAAVLTEPFMTNVGMVPPAEGFHAGLRELTRRHDVALIIDETHTISCGPAGYSGAHGLEPDFFVLGKCIAGGIPSAVWGCSQAQAERIWAVLPHFRPGQAINHFGFGGTLAGNALQLAAMRATFAEVMTEDAYRHMFQLAAQLEAGVRATLEELRLPWHVTRIGARVEYLFMTHAPRNGGEAHHARNGLIEACLHLYLLNRGVLLTPFHNMALTCPATRAEDVELHDRLLRDCLGELLERPS | failed |
| MASYTLRQLKYFVTTVECGSVAEASRKLYIAQPSISTAVKGLEESFGVQLFIRHHAQGVSLTPAGARFYRKAQELLRMAHEFEQNALADNDVIAGQIDIGCFETVAPLYLPGLIAGFRQAYPGVEIRIRDGEQQELVQGLTSGRFDLAFLYEHDLDSTIETEPLMPPQRPHALLPEGHRFAGQAQVSLRDLCLEPMILLDVQPSRTYFVSLFEELGLTPNIAFSSPSIEMVRGMVGQGFGFSLLVTRPHSECTYDGKKVVMVDLAEPVSTSGLAAAWLKRAQLTKPARLFVDYCREQLGKLAERRH | not failed |
| MEQHHVRSLLKPSAYPDPTGSVELVQTHVSYIFLTDNFAYKVKKPVDFGFLNFSTPDRRRFYCEEEVRLNRRLCPDIYLGVAEVRDTPAGAAFVGEGQVIDHAVKMKRLPADRMLDRLLSAGLAGEPEIRAVARVVGTFHLEAEHSSEIDAFGDLATINANWVENFQQTRPYCGITLSAGDHDFIRGWVERFMAERVDLFAARVGDGRIRDGNGDIHMENICLGADGRVCIFDCIEFNNRFRYGDTAADIAFLLMDFDFVLRPDLGAAFLDEYTRITNDASVVEMIDFYKVYRAFVRGKVESMRLSDPQIPENEKQAAAARASRYFRLARGYAVRQGLPPTLFITCGLTGTGKSRLSRELSLDLGLEIASSDVVRKELAGLRSTERPDQDYGAGIYTDRFSLLTYGELERRARVALEGGRSIVVDATFRRRADRERFGALARDAGATFVILHAVCPEPTIRSRLNSRQKDRSEPSDGTWEVYLRQKDEFDPPSDQEGNLLCIDTSDTASAMVDKVLHGLELLPCGKS | failed |
| ESKSPIIQNVLSYITEHFSEGMSLKTLGNDFHINAVYLGQLFQKEMGEHFTDYLNRYRVNYAKEELLQTKDNLTIIAGKSGYTDMAYFYRQFKKHTGETPNRYRKIHQ | not failed |
| MKASSLAFSLLSAAFYLLWTPSTGLKTLNLGSCVIATNLQEIRNGFSEIRGSVQAKDGNIDIRILRRTESLQDTKPANRCCLLRHLLRLYLDRVFKNYQTPDHYTLRKISSLANSFLTIKKDLRLCHAHMTCHCGEEAMKKYSQILSHFEKLEPQAAVVKALGELDILLQWMEETE | failed |
| MMAIQRVGIIGAGKVGIVLAGLALDAGYTVRISGSGSVKKIALTIKTLVPGAIASENADVVANSDIILLAIPLSRYKNIDADLLKGKLVIDAMNYWWETDGIREEVLDPSTTSSEQVQTYFKDAKIVKAFNHMGYHNLQEEARPKGDPKRKALFVTGNDPEAVATVAAFVDHMGFDTVVHNNLADGIMTEPGSPLFGASLRYAELKDIIDHFDQTEFGKEVAAQTHK | failed |
| PASGVRPAEAADLAAVAAYDSACSPADRPRFLEHWLAGPGHRTFVRLVDGRLTGYGVVRPALDSLRVGPLFADSAEDARALFTALTADAGEIAMDIPETNTAAVALAREAGLTPSFETARMYTGPVRPFAADRVYGITSLELG | failed |
| MENSDETKMSEEILALVDEFQQAWPLEGFGGALEMKGRRLDLQGIRVLKKGPQDGVARSSCYGDCRSEDDEATEWITFQVKRVKKPKGDHKKTPGKKVETGQIENGHRYQANLEITGPKVASPGPQGKKRDYQRLGWPSPDECLKLRWVELTAIVSTWLAVSSKNIDITEHIDFATPIQQPAMEPLCNGNLPTSMHTLDHLHGVSNRASLHYTGESQLTEVLQNLGKDQYPQQSLEQIGTRIAKVLEKSQTSWVLSSMAALYWRVKGQGKKAIDCLRQALHYAPHQMKDVPLISLANILHNAKLWNDAVIVATMAVEIAPHFAVNHFTLGNVYVAMEEFEKALVWYESTLKLQPEFVPAKNRIQTIQCHLMLKKGRRSP | failed |
